Data reported in the supplement of paper PMC11316812.
± gives the standard deviation of the averaged measurements.

Key:
MCF7 = experiment: percentage of EdU-negative (G0-arrested) nuclei per well, 72 h; higher = more G0 arrest; conditions: reference: sequence is the full UniProt precursor, the tested protein was the secreted form or ectodomain
hTERT-HMEC = experiment: as above; conditions: reference: sequence is the full UniProt precursor, the tested protein was the secreted form or ectodomain
[1] = protein concentration 0.021935 µM
[2] = protein concentration 0.21935 µM
[3] = protein concentration 0.00925 µM
[4] = protein concentration 0.0925 µM
[5] = protein concentration 0.007835 µM
[6] = protein concentration 0.07835 µM
[7] = protein concentration 0.01503 µM
[8] = protein concentration 0.1503 µM
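Also: secreted proteins added to cultured cells, EdU pulse at the end, nuclei found by Hoechst imaging, EdU status from nuclear versus surrounding ring intensity ratio, PBS as neutral control.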

MLPAATASLLGPLLTACALLPFAQGQTPNYTRPVFLCGGDVKGESGYVASEGFPNLYPPNKECIWTITVPEGQTVSLSFRVFDLELHPACRYDALEVFAGSGTSGQRLGRFCGTFRPAPLVAPGNQVTLRMTTDEGTGGRGFLLWYSGRATSGTEHQFCGGRLEKAQGTLTTPNWPESDYPPGISCSWHIIAPPDQVIALTFEKFDLEPDTYCRYDSVSVFNGAVSDDSRRLGKFCGDAVPGSISSEGNELLVQFVSDLSVTADGFSASYKTLPRGTAKEGQGPGPKRGTEPKVKLPPKSQPPEKTEESPSAPDAPTCPKQCRRTGTLQSNFCASSLVVTATVKSMVREPGEGLAVTVSLIGAYKTGGLDLPSPPTGASLKFYVPCKQCPPMKKGVSYLLMGQVEENRGPVLPPESFVVLHRPNQDQILTNLSKRKCPSQPVRAAASQD
percentage of EdU-negative (MCF7; [1]): 22.7 ± 2.1% | percentage of EdU-negative (MCF7; [2]): 26.5 ± 0.72% | percentage of EdU-negative (hTERT-HMEC; [1]): 4.8 ± 0.62% | percentage of EdU-negative (hTERT-HMEC; [2]): 6.48 ± 0.73%

MLPAPAAPRWPPLLLLLLLLLPLARGAPARPAAGGQASELVVPTRLPGSAGELALHLSAFGKGFVLRLAPDDSFLAPEFKIERLGGSGRATGGERGLRGCFFSGTVNGEPESLAAVSLCRGLSGSFLLDGEEFTIQPQGAGGSLAQPHRLQRWGPAGARPLPRGPEWEVETGEGQRQERGDHQEDSEEESQEEEAEGASEPPPPLGATSRTKRFVSEARFVETLLVADASMAAFYGADLQNHILTLMSVAARIYKHPSIKNSINLMVVKVLIVEDEKWGPEVSDNGGLTLRNFCNWQRRFNQPSDRHPEHYDTAILLTRQNFCGQEGLCDTLGVADIGTICDPNKSCSVIEDEGLQAAHTLAHELGHVLSMPHDDSKPCTRLFGPMGKHHVMAPLFVHLNQTLPWSPCSAMYLTELLDGGHGDCLLDAPAAALPLPTGLPGRMALYQLDQQCRQIFGPDFRHCPNTSAQDVCAQLWCHTDGAEPLCHTKNGSLPWADGTPCGPGHLCSEGSCLPEEEVERPKPVADGGWAPWGPWGECSRTCGGGVQFSHRECKDPEPQNGGRYCLGRRAKYQSCHTEECPPDGKSFREQQCEKYNAYNYTDMDGNLLQWVPKYAGVSPRDRCKLFCRARGRSEFKVFEAKVIDGTLCGPETLAICVRGQCVKAGCDHVVDSPRKLDKCGVCGGKGNSCRKVSGSLTPTNYGYNDIVTIPAGATNIDVKQRSHPGVQNDGNYLALKTADGQYLLNGNLAISAIEQDILVKGTILKYSGSIATLERLQSFRPLPEPLTVQLLTVPGEVFPPKVKYTFFVPNDVDFSMQSSKERATTNIIQPLLHAQWVLGDWSECSSTCGAGWQRRTVECRDPSGQASATCNKALKPEDAKPCESQLCPL [Q9UP79]
percentage of EdU-negative (MCF7; [3]): 25.7 ± 2% | percentage of EdU-negative (MCF7; [4]): 26.53 ± 0.069% | percentage of EdU-negative (hTERT-HMEC; [3]): 5.77 ± 1.1% | percentage of EdU-negative (hTERT-HMEC; [4]): 6.06 ± 0.51%

MLPARCARLLTPHLLLVLVQLSPARGHRTTGPRFLISDRDPQCNLHCSRTQPKPICASDGRSYESMCEYQRAKCRDPTLGVVHRGRCKDAGQSKCRLERAQALEQAKKPQEAVFVPECGEDGSFTQVQCHTYTGYCWCVTPDGKPISGSSVQNKTPVCSGSVTDKPLSQGNSGRKDDGSKPTPTMETQPVFDGDEITAPTLWIKHLVIKDSKLNNTNIRNSEKVYSCDQERQSALEEAQQNPREGIVIPECAPGGLYKPVQCHQSTGYCWCVLVDTGRPLPGTSTRYVMPSCESDARAKTTEADDPFKDRELPGCPEGKKMEFITSLLDALTTDMVQAINSAAPTGGGRFSEPDPSHTLEERVVHWYFSQLDSNSSNDINKREMKPFKRYVKKKAKPKKCARRFTDYCDLNKDKVISLPELKGCLGVSKEGRLV [Q9H4F8]
percentage of EdU-negative (MCF7; [5]): 26.5 ± 1.4% | percentage of EdU-negative (MCF7; [6]): 31.1 ± 0.71% | percentage of EdU-negative (hTERT-HMEC; [5]): 4.85 ± 0.098% | percentage of EdU-negative (hTERT-HMEC; [6]): 16.6 ± 0.68%

MLPCASCLPGSLLLWALLLLLLGSASPQDSEEPDSYTECTDGYEWDPDSQHCRDVNECLTIPEACKGEMKCINHYGGYLCLPRSAAVINDLHGEGPPPPVPPAQHPNPCPPGYEPDDQDSCVDVDECAQALHDCRPSQDCHNLPGSYQCTCPDGYRKIGPECVDIDECRYRYCQHRCVNLPGSFRCQCEPGFQLGPNNRSCVDVNECDMGAPCEQRCFNSYGTFLCRCHQGYELHRDGFSCSDIDECSYSSYLCQYRCINEPGRFSCHCPQGYQLLATRLCQDIDECESGAHQCSEAQTCVNFHGGYRCVDTNRCVEPYIQVSENRCLCPASNPLCREQPSSIVHRYMTITSERSVPADVFQIQATSVYPGAYNAFQIRAGNSQGDFYIRQINNVSAMLVLARPVTGPREYVLDLEMVTMNSLMSYRASSVLRLTVFVGAYTF
percentage of EdU-negative (MCF7; [7]): 23.73 ± 0.068% | percentage of EdU-negative (MCF7; [8]): 33 ± 1.2% | percentage of EdU-negative (hTERT-HMEC; [7]): 4.54 ± 0.11% | percentage of EdU-negative (hTERT-HMEC; [8]): 7.23 ± 0.73%
